B1: library; numbered along this chain (parent)
chain: MAAAAAAAAEQQSSNGPVKKSMREKAVERRSVNKEHNSNFKAGYIPIDEDRLHKTGLRGRKGNLAICVIILLFILAVINLIITLVIWAVIRIGPNGCDSMEFHESGLLRFKQVSDMGVIHPLYKSTVGGRRNENLVITGNNQPIVFQQGTTKLSVENNKTSITSDIGMQFFDPRTQNILFSTDYETHEFHLPSGVKSLNVQKASTERITSNATSDLNIKVDGRAIVRGNEGVFIMGKTIEFHMGGNMELKAENSIILNGSVMVSTTRLPSSSSGDQLGSGDWVRYKLCMCADGTLFKVQVTSQNMGCQISDNPCGNTH

Variants of: B1
Experiment: SGCB cell-surface expression functional score (HA stain, bin4 vs bin1, normalised to synonymous) (log10 ratio); higher = more cell-surface SGCB (functional)
Description: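 Deep mutational scan of full-length human SGCB (YFP-SGCB-HA, NNN codon sublibraries A-F) delivered by lentivirus at low MOI into ADG-HEK293 cells stably expressing SGCA, SGCD and SGCG. YFP-positive cells were stained for surface HA on unpermeabilized cells and FACS-sorted into bins. The functional score is log10(frequency in high bin 4 / frequency in low bin 1), normalised per chunk so that synonymous variants have mean 0 and SD 0.5. Scores are the median over codons and over duplicate biological replicates; scores below -0.5 are called non-functional. Scale: negative means deleterious.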

| Variant | SGCB cell-surface expression functional score (log10) |
| --- | --- |
| MAAAAAAAAEQQSSNGPVKKSMREKAVERRSVNKEHNQNFKAGYIPIDEDRLHKTGLRGRKGNLAICVIILLFILAVINLIITLVIWAVIRIGPNGCDSMEFHESGLLRFKQVSDMGVIHPLYKSTVGGRRNENLVITGNNQPIVFQQGTTKLSVENNKTSITSDIGMQFFDPRTQNILFSTDYETHEFHLPSGVKSLNVQKASTERITSNATSDLNIKVDGRAIVRGNEGVFIMGKTIEFHMGGNMELKAENSIILNGSVMVSTTRLPSSSSGDQLGSGDWVRYKLCMCADGTLFKVQVTSQNMGCQISDNPCGNTH [S38Q] | -0.18 |
| MAAAAAAAAEQQSSNGPVKKSMREKAVERRSVNKEHNWNFKAGYIPIDEDRLHKTGLRGRKGNLAICVIILLFILAVINLIITLVIWAVIRIGPNGCDSMEFHESGLLRFKQVSDMGVIHPLYKSTVGGRRNENLVITGNNQPIVFQQGTTKLSVENNKTSITSDIGMQFFDPRTQNILFSTDYETHEFHLPSGVKSLNVQKASTERITSNATSDLNIKVDGRAIVRGNEGVFIMGKTIEFHMGGNMELKAENSIILNGSVMVSTTRLPSSSSGDQLGSGDWVRYKLCMCADGTLFKVQVTSQNMGCQISDNPCGNTH [S38W] | -0.17 |
| MAAAAAAAAEQQSSNGPVKKSMREKAVERRSVNKEHNTNFKAGYIPIDEDRLHKTGLRGRKGNLAICVIILLFILAVINLIITLVIWAVIRIGPNGCDSMEFHESGLLRFKQVSDMGVIHPLYKSTVGGRRNENLVITGNNQPIVFQQGTTKLSVENNKTSITSDIGMQFFDPRTQNILFSTDYETHEFHLPSGVKSLNVQKASTERITSNATSDLNIKVDGRAIVRGNEGVFIMGKTIEFHMGGNMELKAENSIILNGSVMVSTTRLPSSSSGDQLGSGDWVRYKLCMCADGTLFKVQVTSQNMGCQISDNPCGNTH [S38T] | -0.04 |
| MAAAAAAAAEQQSSNGPVKKSMREKAVERRSVNKEHNRNFKAGYIPIDEDRLHKTGLRGRKGNLAICVIILLFILAVINLIITLVIWAVIRIGPNGCDSMEFHESGLLRFKQVSDMGVIHPLYKSTVGGRRNENLVITGNNQPIVFQQGTTKLSVENNKTSITSDIGMQFFDPRTQNILFSTDYETHEFHLPSGVKSLNVQKASTERITSNATSDLNIKVDGRAIVRGNEGVFIMGKTIEFHMGGNMELKAENSIILNGSVMVSTTRLPSSSSGDQLGSGDWVRYKLCMCADGTLFKVQVTSQNMGCQISDNPCGNTH [S38R] | -0.01 |
| MAAAAAAAAEQQSSNGPVKKSMREKAVERRSVNKEHNYNFKAGYIPIDEDRLHKTGLRGRKGNLAICVIILLFILAVINLIITLVIWAVIRIGPNGCDSMEFHESGLLRFKQVSDMGVIHPLYKSTVGGRRNENLVITGNNQPIVFQQGTTKLSVENNKTSITSDIGMQFFDPRTQNILFSTDYETHEFHLPSGVKSLNVQKASTERITSNATSDLNIKVDGRAIVRGNEGVFIMGKTIEFHMGGNMELKAENSIILNGSVMVSTTRLPSSSSGDQLGSGDWVRYKLCMCADGTLFKVQVTSQNMGCQISDNPCGNTH [S38Y] | -0.07 |
| MAAAAAAAAEQQSSNGPVKKSMREKAVERRSVNKEHNVNFKAGYIPIDEDRLHKTGLRGRKGNLAICVIILLFILAVINLIITLVIWAVIRIGPNGCDSMEFHESGLLRFKQVSDMGVIHPLYKSTVGGRRNENLVITGNNQPIVFQQGTTKLSVENNKTSITSDIGMQFFDPRTQNILFSTDYETHEFHLPSGVKSLNVQKASTERITSNATSDLNIKVDGRAIVRGNEGVFIMGKTIEFHMGGNMELKAENSIILNGSVMVSTTRLPSSSSGDQLGSGDWVRYKLCMCADGTLFKVQVTSQNMGCQISDNPCGNTH [S38V] | -0.31 |
| MAAAAAAAAEQQSSNGPVKKSMREKAVERRSVNKEHNSFFKAGYIPIDEDRLHKTGLRGRKGNLAICVIILLFILAVINLIITLVIWAVIRIGPNGCDSMEFHESGLLRFKQVSDMGVIHPLYKSTVGGRRNENLVITGNNQPIVFQQGTTKLSVENNKTSITSDIGMQFFDPRTQNILFSTDYETHEFHLPSGVKSLNVQKASTERITSNATSDLNIKVDGRAIVRGNEGVFIMGKTIEFHMGGNMELKAENSIILNGSVMVSTTRLPSSSSGDQLGSGDWVRYKLCMCADGTLFKVQVTSQNMGCQISDNPCGNTH [N39F] | -0.12 |
| MAAAAAAAAEQQSSNGPVKKSMREKAVERRSVNKEHNSKFKAGYIPIDEDRLHKTGLRGRKGNLAICVIILLFILAVINLIITLVIWAVIRIGPNGCDSMEFHESGLLRFKQVSDMGVIHPLYKSTVGGRRNENLVITGNNQPIVFQQGTTKLSVENNKTSITSDIGMQFFDPRTQNILFSTDYETHEFHLPSGVKSLNVQKASTERITSNATSDLNIKVDGRAIVRGNEGVFIMGKTIEFHMGGNMELKAENSIILNGSVMVSTTRLPSSSSGDQLGSGDWVRYKLCMCADGTLFKVQVTSQNMGCQISDNPCGNTH [N39K] | 0.08 |
| MAAAAAAAAEQQSSNGPVKKSMREKAVERRSVNKEHNSDFKAGYIPIDEDRLHKTGLRGRKGNLAICVIILLFILAVINLIITLVIWAVIRIGPNGCDSMEFHESGLLRFKQVSDMGVIHPLYKSTVGGRRNENLVITGNNQPIVFQQGTTKLSVENNKTSITSDIGMQFFDPRTQNILFSTDYETHEFHLPSGVKSLNVQKASTERITSNATSDLNIKVDGRAIVRGNEGVFIMGKTIEFHMGGNMELKAENSIILNGSVMVSTTRLPSSSSGDQLGSGDWVRYKLCMCADGTLFKVQVTSQNMGCQISDNPCGNTH [N39D] | 0.41 |
| MAAAAAAAAEQQSSNGPVKKSMREKAVERRSVNKEHNSHFKAGYIPIDEDRLHKTGLRGRKGNLAICVIILLFILAVINLIITLVIWAVIRIGPNGCDSMEFHESGLLRFKQVSDMGVIHPLYKSTVGGRRNENLVITGNNQPIVFQQGTTKLSVENNKTSITSDIGMQFFDPRTQNILFSTDYETHEFHLPSGVKSLNVQKASTERITSNATSDLNIKVDGRAIVRGNEGVFIMGKTIEFHMGGNMELKAENSIILNGSVMVSTTRLPSSSSGDQLGSGDWVRYKLCMCADGTLFKVQVTSQNMGCQISDNPCGNTH [N39H] | -0.1 |
| MAAAAAAAAEQQSSNGPVKKSMREKAVERRSVNKEHNSEFKAGYIPIDEDRLHKTGLRGRKGNLAICVIILLFILAVINLIITLVIWAVIRIGPNGCDSMEFHESGLLRFKQVSDMGVIHPLYKSTVGGRRNENLVITGNNQPIVFQQGTTKLSVENNKTSITSDIGMQFFDPRTQNILFSTDYETHEFHLPSGVKSLNVQKASTERITSNATSDLNIKVDGRAIVRGNEGVFIMGKTIEFHMGGNMELKAENSIILNGSVMVSTTRLPSSSSGDQLGSGDWVRYKLCMCADGTLFKVQVTSQNMGCQISDNPCGNTH [N39E] | 0.54 |
| MAAAAAAAAEQQSSNGPVKKSMREKAVERRSVNKEHNSLFKAGYIPIDEDRLHKTGLRGRKGNLAICVIILLFILAVINLIITLVIWAVIRIGPNGCDSMEFHESGLLRFKQVSDMGVIHPLYKSTVGGRRNENLVITGNNQPIVFQQGTTKLSVENNKTSITSDIGMQFFDPRTQNILFSTDYETHEFHLPSGVKSLNVQKASTERITSNATSDLNIKVDGRAIVRGNEGVFIMGKTIEFHMGGNMELKAENSIILNGSVMVSTTRLPSSSSGDQLGSGDWVRYKLCMCADGTLFKVQVTSQNMGCQISDNPCGNTH [N39L] | -0.02 |
| MAAAAAAAAEQQSSNGPVKKSMREKAVERRSVNKEHNSIFKAGYIPIDEDRLHKTGLRGRKGNLAICVIILLFILAVINLIITLVIWAVIRIGPNGCDSMEFHESGLLRFKQVSDMGVIHPLYKSTVGGRRNENLVITGNNQPIVFQQGTTKLSVENNKTSITSDIGMQFFDPRTQNILFSTDYETHEFHLPSGVKSLNVQKASTERITSNATSDLNIKVDGRAIVRGNEGVFIMGKTIEFHMGGNMELKAENSIILNGSVMVSTTRLPSSSSGDQLGSGDWVRYKLCMCADGTLFKVQVTSQNMGCQISDNPCGNTH [N39I] | -0.18 |
| MAAAAAAAAEQQSSNGPVKKSMREKAVERRSVNKEHNSCFKAGYIPIDEDRLHKTGLRGRKGNLAICVIILLFILAVINLIITLVIWAVIRIGPNGCDSMEFHESGLLRFKQVSDMGVIHPLYKSTVGGRRNENLVITGNNQPIVFQQGTTKLSVENNKTSITSDIGMQFFDPRTQNILFSTDYETHEFHLPSGVKSLNVQKASTERITSNATSDLNIKVDGRAIVRGNEGVFIMGKTIEFHMGGNMELKAENSIILNGSVMVSTTRLPSSSSGDQLGSGDWVRYKLCMCADGTLFKVQVTSQNMGCQISDNPCGNTH [N39C] | 0.2 |
| MAAAAAAAAEQQSSNGPVKKSMREKAVERRSVNKEHNSMFKAGYIPIDEDRLHKTGLRGRKGNLAICVIILLFILAVINLIITLVIWAVIRIGPNGCDSMEFHESGLLRFKQVSDMGVIHPLYKSTVGGRRNENLVITGNNQPIVFQQGTTKLSVENNKTSITSDIGMQFFDPRTQNILFSTDYETHEFHLPSGVKSLNVQKASTERITSNATSDLNIKVDGRAIVRGNEGVFIMGKTIEFHMGGNMELKAENSIILNGSVMVSTTRLPSSSSGDQLGSGDWVRYKLCMCADGTLFKVQVTSQNMGCQISDNPCGNTH [N39M] | -0.61 |
| MAAAAAAAAEQQSSNGPVKKSMREKAVERRSVNKEHNSAFKAGYIPIDEDRLHKTGLRGRKGNLAICVIILLFILAVINLIITLVIWAVIRIGPNGCDSMEFHESGLLRFKQVSDMGVIHPLYKSTVGGRRNENLVITGNNQPIVFQQGTTKLSVENNKTSITSDIGMQFFDPRTQNILFSTDYETHEFHLPSGVKSLNVQKASTERITSNATSDLNIKVDGRAIVRGNEGVFIMGKTIEFHMGGNMELKAENSIILNGSVMVSTTRLPSSSSGDQLGSGDWVRYKLCMCADGTLFKVQVTSQNMGCQISDNPCGNTH [N39A] | -0.05 |
| MAAAAAAAAEQQSSNGPVKKSMREKAVERRSVNKEHNSPFKAGYIPIDEDRLHKTGLRGRKGNLAICVIILLFILAVINLIITLVIWAVIRIGPNGCDSMEFHESGLLRFKQVSDMGVIHPLYKSTVGGRRNENLVITGNNQPIVFQQGTTKLSVENNKTSITSDIGMQFFDPRTQNILFSTDYETHEFHLPSGVKSLNVQKASTERITSNATSDLNIKVDGRAIVRGNEGVFIMGKTIEFHMGGNMELKAENSIILNGSVMVSTTRLPSSSSGDQLGSGDWVRYKLCMCADGTLFKVQVTSQNMGCQISDNPCGNTH [N39P] | -0.17 |
| MAAAAAAAAEQQSSNGPVKKSMREKAVERRSVNKEHNSQFKAGYIPIDEDRLHKTGLRGRKGNLAICVIILLFILAVINLIITLVIWAVIRIGPNGCDSMEFHESGLLRFKQVSDMGVIHPLYKSTVGGRRNENLVITGNNQPIVFQQGTTKLSVENNKTSITSDIGMQFFDPRTQNILFSTDYETHEFHLPSGVKSLNVQKASTERITSNATSDLNIKVDGRAIVRGNEGVFIMGKTIEFHMGGNMELKAENSIILNGSVMVSTTRLPSSSSGDQLGSGDWVRYKLCMCADGTLFKVQVTSQNMGCQISDNPCGNTH [N39Q] | 0.07 |
| MAAAAAAAAEQQSSNGPVKKSMREKAVERRSVNKEHNSGFKAGYIPIDEDRLHKTGLRGRKGNLAICVIILLFILAVINLIITLVIWAVIRIGPNGCDSMEFHESGLLRFKQVSDMGVIHPLYKSTVGGRRNENLVITGNNQPIVFQQGTTKLSVENNKTSITSDIGMQFFDPRTQNILFSTDYETHEFHLPSGVKSLNVQKASTERITSNATSDLNIKVDGRAIVRGNEGVFIMGKTIEFHMGGNMELKAENSIILNGSVMVSTTRLPSSSSGDQLGSGDWVRYKLCMCADGTLFKVQVTSQNMGCQISDNPCGNTH [N39G] | 0.13 |

Reference: the supplement of paper PMC10266784
